US20260250410A1, “ANTIBODY AND USE THEREOF” (SICHUAN HUIYU PHARMACEUTICAL CO., LTD., priority 2022, published 2026)

T1: HuCDCP1-C (Homo sapiens, UniProt Q9H5V8)
T1 construct: made in house; host or cells: HEK-293T
T1 sequence (Q9H5V8 30-667): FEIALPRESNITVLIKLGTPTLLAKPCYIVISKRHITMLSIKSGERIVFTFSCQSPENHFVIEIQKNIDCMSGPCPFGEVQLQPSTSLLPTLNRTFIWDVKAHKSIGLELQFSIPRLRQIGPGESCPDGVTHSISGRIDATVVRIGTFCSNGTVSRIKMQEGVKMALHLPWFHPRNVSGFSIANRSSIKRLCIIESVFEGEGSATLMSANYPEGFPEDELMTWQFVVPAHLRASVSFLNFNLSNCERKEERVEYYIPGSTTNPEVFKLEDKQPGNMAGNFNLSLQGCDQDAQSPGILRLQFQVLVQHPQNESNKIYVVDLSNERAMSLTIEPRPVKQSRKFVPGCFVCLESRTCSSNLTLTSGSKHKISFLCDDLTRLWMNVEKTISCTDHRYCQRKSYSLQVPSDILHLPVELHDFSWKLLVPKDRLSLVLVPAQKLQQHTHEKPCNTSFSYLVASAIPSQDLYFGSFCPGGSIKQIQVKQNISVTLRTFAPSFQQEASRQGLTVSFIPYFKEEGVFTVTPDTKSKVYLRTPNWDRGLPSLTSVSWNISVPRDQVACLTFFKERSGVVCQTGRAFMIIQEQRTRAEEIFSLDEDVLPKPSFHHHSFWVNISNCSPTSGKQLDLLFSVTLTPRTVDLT


Assays:
HuCDCP1-C = target: T1, HuCDCP1-C; assay: Caterra affinity of humanized anti-CDCP1 antibodies; assay type: binding; settings: HuCDCP1-C 2 μg/ml immobilized
Description: The humanized anti-CDCP1 antibodies obtained from Example 11 were subjected to gene cloning, constructed into pTT5 expression vector for a small amount of expression in CHO cells (Expi-CHOS: Gibco A29127), and purified with an Fc affinity column (AT Protein A Diamond Plus. No. AA402312). Antibody purity was analyzed by HPLC and determined by Nanodrop. High-throughput affinity assay was carried out for a small amount of antibodies by Caterra.

MDA-MB-231 cells [1] = assay: Endocytosis capacity of humanized antibodies; assay type: cell-based, human; settings: antibody 1.5 μg/mL; for 1 h endocytosis (%): MDA-MB-231, 1 h at 37° C.; for 2 h endocytosis (%): MDA-MB-231, 2 h at 37° C.
Description: The endocytosis capacity of the anti-CDCP1 humanized antibody was detected with reference to example 5. MDA-MB-231 cells were subjected to digestion with 5 mM EDTA, and plated at 3×10^4 cells/well after cell counting. After adding an Fc blocker and blocking at room temperature for 10 mins, a test antibody (1.5 μg/mL) was added, and the mixture was incubated at 4° C. for 30 mins, centrifuged, and washed twice with PBS+2% FBS, then the cells were divided into three equal portions (labeled as 0 h, 1 h, 2 h), cells labeled as 1 h and 2 h time points were added to 200 μL of cell culture medium, and cultured at 37° C. for 1 h and 2 h, respectively. Cells at 0 h point were centrifuged, a secondary antibody (PE anti-human IgG Fc Antibody, Biolegend, 410708) was added, and the mixture was incubated at 4° C. for 30 mins, centrifuged, and washed twice with PBS+2% FBS, and detection was performed using a flow cytometer. After incubation of cells labeled as 1 h and 2 h points at 37° C. was completed, a secondary antibody was added (in the same steps as those at 0 h point), Geo-MFI of the signal under the same voltage was collected as detection signal at 0 h, and antibody internalization rate was calculated according to the following equation: Internalization (%)=(Geo-MFI (0 h)-Geo-MFI (1, 2 h))/Geo-MFI (0 h)×100%.

MDA-MB-231 cells [2] = assay: Endocytosis capacity of murine monoclonal antibody (flow cytometry internalization); assay type: cell-based, human; settings: antibody 1.5 μg/mL; for Internalization MDA-MB-231 (%) 2 h: MDA-MB-231, 2 h at 37° C.
Description: (§1) The endocytosis capacity of the antibody was detected for 0.5 to 2 hours. MDA-MB-231 and PC3 cells were subjected to digestion with 5 mM EDTA, and plated at 4×10^4 cells/well after cell counting. After adding an Fc blocker (Human TruStain FcX™, Biolegend, 422302) and blocking at room temperature for 10 mins, a test antibody (1.5 μg/mL) was added, and the mixture was incubated at 4° C. for 30 mins, centrifuged, and washed twice with PBS+2% FBS, then the cells were divided into four equal portions (labeled as 0 h, 0.5 h, 1 h, 2 h), cells labeled as 0.5 h, 1 h, 2 h time points were added to a cell culture medium at 200 µL/well, and cultured at 37° C. for 0.5 h, 1 h, 2 h, respectively. Cells at 0 h point were centrifuged to remove supernatant, a secondary antibody (PE anti-human IgG Fc Antibody, Biolegend, 410708) was added, and the mixture was incubated at 4° C. for 30 mins, centrifuged, and washed twice with PBS+2% FBS, and detection was performed using a flow cytometer. After incubation of cells labeled as 0.5 h, 1 h, and 2 h points at 37° C. was completed, a secondary antibody was added (in the same steps as those at 0 h point), Geo-MFI of the signal under the same voltage was collected as detection signal at 0 h, and antibody internalization rate was calculated according to the following equation: Internalization (%)=(Geo-MFI (0 h)-Geo-MFI (0.5, 1, 2 h))/Geo-MFI (0 h)×100%.

PC3 cells = assay: as above; assay type: cell-based, human; settings: antibody 1.5 μg/mL; for Internalization PC3 (%) 2 h: PC3, 2 h at 37° C.
Description: as §1

| Molecule | ka (HuCDCP1-C) | kd (HuCDCP1-C) | 1 h endocytosis (%) (MDA-MB-231 cells [1]) | 2 h endocytosis (%) (MDA-MB-231 cells [1]) | Internalization MDA-MB-231 (%) 0.5 h (MDA-MB-231 cells [2]; MDA-MB-231, 0.5 h at 37° C.) | Internalization MDA-MB-231 (%) 1 h (MDA-MB-231 cells [2]; MDA-MB-231, 1 h at 37° C.) | Internalization MDA-MB-231 (%) 2 h (MDA-MB-231 cells [2]) | Internalization PC3 (%) 0.5 h (PC3 cells; PC3, 0.5 h at 37° C.) | Internalization PC3 (%) 1 h (PC3 cells; PC3, 1 h at 37° C.) | Internalization PC3 (%) 2 h (PC3 cells) |
| --- | --- | --- | --- | --- | --- | --- | --- | --- | --- | --- |
| 1CP-117: humanized anti-CDCP1 antibody produced by 8E5; VH SEQ ID NO: 348, VL SEQ ID NO: 358 (antibody, V domains shown, humanized antibody 8E5 heavy chain variable region 01; humanized antibody 8E5 light chain variable region 02) VH: QVQLVQSGSELKKPGASVKVSCKASGYTLTDFSMHWVRQAPGQGLEWMGWINTETGAPTYADDFKGRFVLSLDTSVSTAYLQISSLKAEDTAVYYCSRGRDYDPHFDYWGQGTLVTVSS VL: EIVLTQSPATLSLSPGERATLSCRASQSISDFLHWYQQKPGQSPRLLIKYASQSISGIPARFSGSGSGSDFTLTISSVEPEDFAVYYCQSAHSFPYTFGQGTKLEIK | 152000 M⁻¹ s⁻¹ | 3.93e-05 s⁻¹ | 45.68% | 68.37% |  |  |  |  |  |  |
| 1CP-121: humanized anti-CDCP1 antibody produced by 8E5; VH SEQ ID NO: 348, VL SEQ ID NO: 359 (antibody, V domains shown, humanized antibody 8E5 heavy chain variable region 01; humanized antibody 8E5 light chain variable region 03) VH: QVQLVQSGSELKKPGASVKVSCKASGYTLTDFSMHWVRQAPGQGLEWMGWINTETGAPTYADDFKGRFVLSLDTSVSTAYLQISSLKAEDTAVYYCSRGRDYDPHFDYWGQGTLVTVSS VL: EIVLTQSPATLSLSPGERATLSCRASQSISDFLHWYQQKSGQSPRLLIKYASQSISGIPARFSGSGSGSDFTLTISSVEPEDFAVYYCQSAHSFPYTFGQGTKLEIK | 148000 M⁻¹ s⁻¹ | 1e-05 s⁻¹ | 51.49% | 72.98% |  |  |  |  |  |  |
| 1CP-124: humanized anti-CDCP1 antibody produced by 3C11; VH SEQ ID NO: 339, VL SEQ ID NO: 351 (antibody, V domains shown, humanized antibody 3C11 heavy chain variable region 01; humanized antibody 3C11 light chain variable region 01) VH: QVQLVQSGAEVKKPGASVKVSCKASGYNFISYWLHWVRQAPGQGLEWMGGIYPGNTDTTYNQKFKGRVTMTRDTSTSTVYMELSSLRSEDTAVYYCIRYDYDRGMDYWGQGTLVTVSS VL: DIQMTQSPSSLSASVGDRVTITCRASEDIYYRLAWYQQKPGKAPKLLISGATALETGVPSRFSGSGSGKDYTFTISSLQPEDIATYYCQHYWNIPWTFGQGTKVEIK | 148000 M⁻¹ s⁻¹ | 1.47e-05 s⁻¹ | 38.17% | 56.39% |  |  |  |  |  |  |
| 1CP-128: humanized anti-CDCP1 antibody produced by 3C11; VH SEQ ID NO: 339, VL SEQ ID NO: 352 (antibody, V domains shown, humanized antibody 3C11 heavy chain variable region 01; humanized antibody 3C11 light chain variable region 02) VH: QVQLVQSGAEVKKPGASVKVSCKASGYNFISYWLHWVRQAPGQGLEWMGGIYPGNTDTTYNQKFKGRVTMTRDTSTSTVYMELSSLRSEDTAVYYCIRYDYDRGMDYWGQGTLVTVSS VL: DIQMTQSPSSLSASVGDRVTITCRASEDIYYRLAWYQQKPGKAPKLLISGATALETGVPSRFSGSGSGKDYTLTISSLQPEDIATYYCQHYWNIPWTFGQGTKVEIK | 139000 M⁻¹ s⁻¹ | 1e-05 s⁻¹ | 36.87% | 55.68% |  |  |  |  |  |  |
| 1CP-125: humanized anti-CDCP1 antibody produced by 3C11; VH SEQ ID NO: 340, VL SEQ ID NO: 351 (antibody, V domains shown, humanized antibody 3C11 heavy chain variable region 02; humanized antibody 3C11 light chain variable region 01) VH: QVQLVQSGAEVKKPGASVKVSCKASGYNFISYWLHWVRQAPGQGLEWMGGIYPGNTDTTYNQKFKGRVTMTADTSTSTVYMELSSLRSEDTAVYYCIRYDYDRGMDYWGQGTLVTVSS VL: DIQMTQSPSSLSASVGDRVTITCRASEDIYYRLAWYQQKPGKAPKLLISGATALETGVPSRFSGSGSGKDYTFTISSLQPEDIATYYCQHYWNIPWTFGQGTKVEIK | 151000 M⁻¹ s⁻¹ | 2.17e-05 s⁻¹ | 79.56% | 88.62% |  |  |  |  |  |  |
| 12E6: anti-CDCP1 murine monoclonal antibody (hybridoma); VH SEQ ID NO: 255, VL SEQ ID NO: 305 (antibody, V domains shown, 12E6 heavy chain variable region; 12E6 light chain variable region) VH: EVQLKESGPGILQPSQTLSLTCSFSGFSLSTSGMGVGWIRQPSGKGLEWLAHIWWDDVKLYNPALKSRLTISKETSNNQVFLKIASVDAADTATYYCARIDHGYGSNYWDFDVWGAGTTVTVSS VL: DIVMTQAAPSVPVTPGGSVSISCRSTKSLLHSDGKTYLYWFLQRPGQSPQLLIYRMSNLASGVPDRFSGSGSGTAFTLRISRVEAEDVGVYYCMQHLEYPFTFGSGTKLEIK |  |  |  |  | 10.62% | 7.08% | 27.65% | 0.00% | 0.00% | 7.99% |
| 1CP-068: anti-CDCP1 murine monoclonal antibody (hybridoma); VH SEQ ID NO: 270, VL SEQ ID NO: 320 (antibody, V domains shown, 1CP-068 heavy chain variable region; 1CP-068 light chain variable region) VH: EVQLKESGAELVRPGALVKLSCKASGFNIKDYYMYWVKQRPEQGLEWIGWIDPENGNTIYDPKLQGKARITADTSSNTAYLQLSSLTSEDTAVYYCAGRLYAMEYWGQGTTVTVSS VL: DVVMTQTPALMSASPGEKVTMTCSASSSVSYMYWYQQKPRSSPKPWIYLTSNLASGVPARFSGSGSGTSYSLTISSMEAEDAATYYCQQWSSDPFTFGGGTKLEIK |  |  |  |  |  |  | 49.47% |  |  | 66.24% |
